Consider 1 molecule from US20110288036A1, “Methods for Treating or Preventing Vascular Graft Failure” (priority 2010, published 2011).

Where no end group is shown, it is not given here. Some results are limits rather than exact numbers.

This test addresses MK2 (mitogen-activated protein kinase-activated protein kinase 2), P49137. Description: cell-based or functional assay.

Chain of MK2 (mitogen-activated protein kinase-activated protein kinase 2), P49137 (P49137 46-400): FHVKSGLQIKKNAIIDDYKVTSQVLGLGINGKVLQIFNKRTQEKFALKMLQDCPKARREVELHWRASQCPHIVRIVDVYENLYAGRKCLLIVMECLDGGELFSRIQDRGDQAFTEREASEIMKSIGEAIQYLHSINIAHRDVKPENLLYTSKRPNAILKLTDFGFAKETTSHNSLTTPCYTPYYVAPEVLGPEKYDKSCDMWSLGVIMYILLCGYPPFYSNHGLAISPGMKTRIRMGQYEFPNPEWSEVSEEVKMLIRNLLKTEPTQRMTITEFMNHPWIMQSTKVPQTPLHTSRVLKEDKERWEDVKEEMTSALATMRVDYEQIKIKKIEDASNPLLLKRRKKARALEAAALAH

Take YARAAARQARAKALARQLGVAA (not fully specified (C-terminus)) [MMI-0100 (…; SEQ ID NO: 1)]: the Percent Activity (radiometric kinase assay, 100 µM peptide) (percent activity) was less than 5.
